Where no end group is shown, it is not given here. The star is where a group is joined. Biotin = O=C1N[C@H]2[C@H](CS[C@H]2CCCCC(=O)*)N1

This assay concerns the target T1, Bax (endogenous, in lysate of human Dami megakaryocytic cells) (human, UniProt Q07812 1-192, limits assumed).
T1 construct: Endogenous protein in a cell lysate
Kind of assay: pull-down of biotin-labeled peptide with streptavidin beads from Dami cell lysate, Western blot with anti-Bax antibody. On the procedure: FIG. 1 illustrates Western Blots of Dami cell lysates incubated in the absence or presence of 200 μM biotin-labeled peptides. The peptides were: KLPVM (SEQ ID NO:8) (scrambled negative control), VPMLK (SEQ ID NO:2) (human version), VPTLK (SEQ ID NO:5) (mouse version), and VPALR (SEQ ID NO:6) (rat version). Immuno-precipitation was performed with streptavidin beads. Western blot analysis of immune precipitated samples were performed with anti-Bax polyclonal antibody.
Co-precipitation was performed as previously described (Yoshida, T., et al., Bax-inhibiting peptide derived from mouse and rat Ku70. Biochem Biophys Res Commun, 2004. 321(4): p. 961-6). […] After the precleaning of 200 μl of sample with 20 μl of streptavidin beads (Amersham-Pharmacia Biotech) at 4° C. for 1 h, the samples were incubated with 200 μM of various biotin-labeled peptides (biotin-KLPVM (SEQ ID NO:8), VPMLK (SEQ ID NO:2), VPTLK (SEQ ID NO:5) or VPALR (SEQ ID NO:6) for 2 h. Streptavidin beads (20 μl) were added to the samples and the mixtures were incubated at 4° C. After 2 h of incubation, the beads were washed with 100 μl of Chaps buffer 3 times by centrifugation (1000 rpm, at 4° C., 15 sec). The beads were boiled in 40 μl of Laemmli buffer and the eluted proteins (20 μl) were analyzed by Western blotting with anti-human Bax polyclonal antibody (BD-Pharmingen). […]
On the technique in general: Immunoblotting shows a protein as a band on a membrane.

T1 sequence (Q07812 whole entry): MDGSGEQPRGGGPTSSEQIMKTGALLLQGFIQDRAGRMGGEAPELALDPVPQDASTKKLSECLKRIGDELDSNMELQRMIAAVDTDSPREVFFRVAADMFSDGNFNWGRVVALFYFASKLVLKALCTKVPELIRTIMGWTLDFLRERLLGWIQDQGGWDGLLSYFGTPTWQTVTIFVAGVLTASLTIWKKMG

B1: biotin-KLPVM (SEQ ID NO:8), scrambled negative control peptide (peptide)
peptide: Biotin-KLPVM
notes: Synthetic scrambled control peptide, biotin-labeled, used at 200 uM in Dami cell lysate
On to B1, for which the binding result was “no binding (tested: 200 µM)”.

The values above are taken from US20090118165A1 (CASE WESTERN RESERVE UNIVERSITY, published 2009).
